The record followed here is US20210403600A1 (University of California, published 2021).

Residue numbers refer to the chain shown, from its start.

Assay [1] deals with T1, human Factor XIa (blood-derived, Haematologic Technologies Inc.) (human, UniProt P03951 19-387; P03951 388-625).
T1 construct: It was biotinylated via primary amines for selections, Octet and Biacore; also called FXIa; human FXIa
The experiment in a line: ELISA, wells coated with hFXIa, anti-human IgG HRP, OD 450.

For assay [2], the target named is T1, human Factor XIa (blood-derived, …). The experiment in a line: SPR (Biacore T200), biotinylated FXIa captured on a CAP chip, Fab as analyte, 37 C.
Assay [3] shares this target. The experiment in a line: SPR (Biacore T200), biotinylated FXIa captured on a CAP chip, IgG as analyte, 25 C.
Assay [4] has as its target T2, Cyno FXI (Macaca fascicularis, UniProt A0A2K5VVW4).
T2 construct: coating antigen 'FXI' of the chart titled 'Cyno FXI/FXIA'; also called cynomolgus monkey FXI (zymogen)
The experiment in a line: ELISA, wells coated with cynomolgus FXI (zymogen), anti-human IgG HRP, OD 450.

B1: Clone 24 IgG (antibody, V domains shown)
VH: EVQLVQSGAEVKKPGASVKVSCKASGYTFTGYYMHWVRQAPGQGLEWMGWIDPDSGDTNYAQKFQGRVTMTRDTSISTAYMELSRLRSDDTAVYYCARLASGFRDYWGQGTLVTVSS
VL: DIVMTKSPSSLSASVGDRVTITCRASQGIRNDLGWYQQKPGKAPKRLIYAASSLQSGVPSRFSGSGSGTEFTLTISSLQPEDFATYYCLQHDIYASTFGPGTKVDIKR
notes: also called C24
On to B1, for which the “EC50 (read off the curve)” value in assay [1] was about 1 ng/mL.

B2: DEF Fab (Fab, V domains shown)
VH: B1 VH with S55E
VL: B1 VL with R108T
In turn, B2 gave a Kd in assay [2] of 0.0339 nM.

B3: C24 Fab (Fab, V domains shown)
VH: B1 VH
VL: B1 VL
notes: Fab format of clone 24; also called clone 24 Fab; anti-FXIa C24 Fab
With B3, in assay [2], the Kd was 0.0152 nM.

B4: D4 IgG (antibody, V domains shown)
VH: not shown
VL: B1 VL with K6Q
notes: also called D4 mAb; D4 anti-FXIa mAb
Molecule B4 had a Kd in assay [3] of 0.93 nM. Besides, in assay [4], the binding result is reported as “no binding (tested: not printed)”.
